In paper PMC7035337, “Binding of the periplakin linker requires vimentin acidic residues D176 and E187” (Communications Biology, 2020):
“And” between values parts separate entries of the source, which are not always exact repeats. Identical values can stand only once. Values belong to the binder of their own block, whether it stands above or below them.

B3: vimentinROD, wild-type (residues T99-I249, coils 1A and 1B) (domain or fragment)
chain: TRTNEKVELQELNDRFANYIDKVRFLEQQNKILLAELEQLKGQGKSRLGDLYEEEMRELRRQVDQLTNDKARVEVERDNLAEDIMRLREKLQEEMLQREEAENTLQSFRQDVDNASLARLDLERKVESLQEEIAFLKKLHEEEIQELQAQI
modifications: NT647 fluorescent dye (Monolith NT His-Tag Labelling Kit RED-tris-NTA)
notes: human vimentin, residues T99-I249; Non-cleavable His tag

How the values were obtained:
Settings in all cases: both partners purified
[1] = biological target: B3; test: MST; 50 nM NT647-labelled vimentinROD, linker titrated 780 nM to 800 μM; 150 mM NaCl, 20 mM HEPES pH 7.5, 0.015% Tween 20; 25 °C; MST-on time 5 s; one-ligand binding model; single experiments or merged data sets
vimentinROD E180K = biological target: T1, vimentinROD E180K (human, UniProt P08670 99-249, E180K, NT647 fluorescent dye (Monolith NT His-Tag Labelling Kit RED-tris-NTA)); test: as above
T1 construct: human vimentin, residues T99-I249

vimentinROD E172K = biological target: T2, vimentinROD E172K (human, UniProt P08670 99-249, E172K, NT647 fluorescent dye (Monolith NT His-Tag Labelling Kit RED-tris-NTA)); test: as above
T2 construct: human vimentin, residues T99-I249

[2] = biological target: B3; test: MST; as a1 but 50 mM NaCl: 50 nM NT647-labelled vimentinROD, periplakin linker titrated; 25 °C; one-ligand binding model
[3] = biological target: B3; test: MST; as a1 but 10 mM NaCl: 50 nM NT647-labelled vimentinROD, periplakin linker titrated; 25 °C; one-ligand binding model
[4] = biological target: T3, vimentin^ROD (residues T99–I249) E172K (human, UniProt P08670 99-249, E172K, NT647 fluorescent dye (Monolith NT His-Tag Labelling Kit RED-tris-NTA)); test: MST; 50 nM NT647-labelled vimentin^ROD, linker titrated 780 nM to 800 uM; 150 mM NaCl, 20 mM HEPES pH 7.5, 0.015% Tween 20; 25 C; one-site binding model
T3 construct: vimentin, human, coils 1A and 1B of the central rod domain, residues T99-I249

[5] = biological target: T4, vimentin^ROD (residues T99–I249) E180K (human, UniProt P08670 99-249, E180K, NT647 fluorescent dye (Monolith NT His-Tag Labelling Kit RED-tris-NTA)); test: as above
T4 construct: vimentin, human, coils 1A and 1B of the central rod domain, residues T99-I249

[6] = biological target: T5, vimentin^ROD (residues T99–I249) D162K (human, UniProt P08670 99-249, D162K, NT647 fluorescent dye (Monolith NT His-Tag Labelling Kit RED-tris-NTA)); test: as above
T5 construct: vimentin, human, coils 1A and 1B of the central rod domain, residues T99-I249

[7] = biological target: T6, vimentin^ROD (residues T99–I249), wild-type (human, UniProt P08670 99-249, NT647 fluorescent dye (Monolith NT His-Tag Labelling Kit RED-tris-NTA)); test: as above
T6 construct: vimentin, human, coils 1A and 1B of the central rod domain, residues T99-I249; Non-cleavable His tag; also called wild-type vimentin^ROD

[8] = biological target: T7, vimentin^ROD (residues T99–I249) E229K (human, UniProt P08670 99-249, E229K, NT647 fluorescent dye (Monolith NT His-Tag Labelling Kit RED-tris-NTA)); test: as above
T7 construct: vimentin, human, coils 1A and 1B of the central rod domain, residues T99-I249

[9] = biological target: T6, vimentin^ROD (residues T99–I249), …; test: MST; as the standard MST assay (50 nM labelled vimentin^ROD, linker titrated) but in 10 mM NaCl
[10] = biological target: T8, periplakin linker domain R1713E/K1714E (human, UniProt O60437 1646-1756, R1713E | K1714E); test: MST; 50 nM NT647-labelled vimentinROD, linker titrated 780 nM to 800 μM; 150 mM NaCl, 20 mM HEPES pH 7.5, 0.015% Tween 20; 25 °C; MST-on time 5 s; one-ligand binding model; single experiments or merged data sets
T8 construct: human periplakin linker domain, residues K1646-K1756
T8 sequence (looked up): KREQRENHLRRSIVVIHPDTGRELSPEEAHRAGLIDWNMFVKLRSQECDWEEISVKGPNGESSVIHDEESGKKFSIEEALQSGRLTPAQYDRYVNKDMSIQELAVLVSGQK

[11] = biological target: T9, periplakin linker domain R1737E/K1741E (human, UniProt O60437 1646-1756, R1737E | K1741E); test: as above
T9 construct: human periplakin linker domain, residues K1646-K1756
T9 sequence (looked up): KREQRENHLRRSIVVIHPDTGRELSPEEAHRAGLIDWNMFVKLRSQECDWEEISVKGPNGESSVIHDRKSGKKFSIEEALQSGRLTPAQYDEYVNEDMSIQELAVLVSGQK

[12] = biological target: T10, periplakin linker domain R1655E/R1656E (human, UniProt O60437 1646-1756, R1655E | R1656E); test: as above
T10 construct: human periplakin linker domain, residues K1646-K1756
T10 sequence (looked up): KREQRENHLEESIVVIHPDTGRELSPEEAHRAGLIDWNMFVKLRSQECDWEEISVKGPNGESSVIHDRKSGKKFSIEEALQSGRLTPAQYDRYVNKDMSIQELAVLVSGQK

[13] = biological target: T11, periplakin linker domain K1687E/R1689E (human, UniProt O60437 1646-1756, K1687E | R1689E); test: as above
T11 construct: human periplakin linker domain, residues K1646-K1756
T11 sequence (looked up): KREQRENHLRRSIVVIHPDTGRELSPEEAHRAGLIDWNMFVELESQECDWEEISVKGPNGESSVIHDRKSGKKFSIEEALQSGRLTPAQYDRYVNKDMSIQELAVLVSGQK

[14] = biological target: T12, periplakin linker domain R1713E (human, UniProt O60437 1646-1756, R1713E); test: as above
T12 construct: human periplakin linker domain, residues K1646-K1756; also called Periplakin R1713E
T12 sequence (looked up): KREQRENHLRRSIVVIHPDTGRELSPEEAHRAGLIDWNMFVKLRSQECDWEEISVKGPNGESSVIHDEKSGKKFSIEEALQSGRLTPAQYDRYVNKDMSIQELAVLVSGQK

[15] = biological target: T13, vimentin^ROD (residues T99–I249) D176K (human, UniProt P08670 99-249, D176K, NT647 fluorescent dye (Monolith NT His-Tag Labelling Kit RED-tris-NTA)); test: MST; 50 nM NT647-labelled vimentin^ROD, linker titrated 780 nM to 800 uM; 150 mM NaCl, 20 mM HEPES pH 7.5, 0.015% Tween 20; 25 C; one-site binding model
T13 construct: vimentin, human, coils 1A and 1B of the central rod domain, residues T99-I249; also called D176K vimentin^ROD; vimentin mutant D176K
T13 sequence (P08670 99-249 D176K): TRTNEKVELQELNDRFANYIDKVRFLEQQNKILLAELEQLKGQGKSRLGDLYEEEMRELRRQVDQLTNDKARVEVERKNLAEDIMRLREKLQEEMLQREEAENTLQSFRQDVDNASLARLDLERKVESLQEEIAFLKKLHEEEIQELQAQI

T2 sequence (P08670 99-249 E172K): as the sequence (P08670 99-249 D176K) above, with E74K, K78D counted along it
T1 sequence (P08670 99-249 E180K): as the sequence (P08670 99-249 D176K) above, with K78D, E82K counted along it
T6 sequence (P08670 99-249): as the sequence (P08670 99-249 D176K) above, with K78D counted along it
T3 sequence (P08670 99-249 E172K): as the sequence (P08670 99-249 D176K) above, with E74K, K78D counted along it
T5 sequence (P08670 99-249 D162K): as the sequence (P08670 99-249 D176K) above, with D64K, K78D counted along it
T7 sequence (P08670 99-249 E229K): as the sequence (P08670 99-249 D176K) above, with K78D, E131K counted along it
T4 sequence (P08670 99-249 E180K): as the sequence (P08670 99-249 D176K) above, with K78D, E82K counted along it

B1: periplakin linker domain, wild-type (residues K1646-K1756) (domain or fragment, human)
chain: KREQRENHLRRSIVVIHPDTGRELSPEEAHRAGLIDWNMFVKLRSQECDWEEISVKGPNGESSVIHDRKSGKKFSIEEALQSGRLTPAQYDRYVNKDMSIQELAVLVSGQK
notes: human periplakin linker domain, residues K1646-K1756; also called Periplakin Linker Wild-type
- Kd [1]: 59 µM and 66 µM and 70 µM and 85 µM
- Kd (vimentinROD E180K): 8 µM and 4 µM and 3 µM and 5.7 µM
- Kd (vimentinROD E172K): 26 µM and 24 µM and 27 µM and 29 µM
- Kd [2]: 59 µM and 69 µM and 71 µM and 66 µM
- Kd [3]: 31 µM and 32 µM and 30.2 µM

B2: periplakin linker domain (K1646–K1756), wild-type (domain or fragment, human, UniProt O60437 1646-1756, looked up)
chain: KREQRENHLRRSIVVIHPDTGRELSPEEAHRAGLIDWNMFVKLRSQECDWEEISVKGPNGESSVIHDRKSGKKFSIEEALQSGRLTPAQYDRYVNKDMSIQELAVLVSGQK
notes: periplakin linker domain, human, residues K1646-K1756; Vector pGEX-6P-1; also called wild-type periplakin linker; WT
- Kd [4]: 27 ± 4 µM
- Kd [5]: 6 ± 2 µM
- Kd [6]: 68 ± 4 µM
- Kd [7]: 70.5 ± 3.8 µM
- Kd [8]: 16 ± 2 µM
- Kd [9]: 31 ± 2 µM

Binder: B3
- Kd [10]: 143 µM and 145 µM and 123 µM
- Kd [11]: 57 µM and 43 µM and 29 µM and 47.9 µM
- Kd [12]: 351 µM and 382 µM and 444 µM
- Kd [13]: 312 µM and 306 µM and 273 µM
- Kd [14]: 210 µM and 160 µM and 240 µM

B9: desmoplakin linker domain (Q2454–N2565) E2495K/C2497R (domain or fragment, human, UniProt P15924 2454-2565, looked up)
chain: QTSQKNTLRKRRVVIVDPETNKEMSVQEAYKKGLIDYETFKKLREQECEWEEITITGSDGSTRVVLVDRKTGSQYDIQDAIDKGLVDRKFFDQYRSGSLSLTQFADMISLKN
notes: desmoplakin linker domain, human, residues Q2454-N2565
- Kd [7]: 600 ± 70 µM

The remaining binders from weak to strong by Kd [7], led by results:

- Kd [7]: 380 ± 51 µM
B5: periplakin linker domain (K1646–K1756) R1655E/R1656E (domain or fragment, human, UniProt O60437 1646-1756, looked up)
chain: KREQRENHLEESIVVIHPDTGRELSPEEAHRAGLIDWNMFVKLRSQECDWEEISVKGPNGESSVIHDRKSGKKFSIEEALQSGRLTPAQYDRYVNKDMSIQELAVLVSGQK
notes: periplakin linker domain, human, residues K1646-K1756

- Kd [7]: 300 ± 54 µM
B7: periplakin linker domain (K1646–K1756) K1687E/R1689E (domain or fragment, human, UniProt O60437 1646-1756, looked up)
chain: KREQRENHLRRSIVVIHPDTGRELSPEEAHRAGLIDWNMFVELESQECDWEEISVKGPNGESSVIHDRKSGKKFSIEEALQSGRLTPAQYDRYVNKDMSIQELAVLVSGQK
notes: as for B5

- Kd [15]: 23 ± 4 µM
- Kd [7]: 200 ± 29 µM
B6: periplakin linker domain (K1646–K1756) R1713E (domain or fragment, human, UniProt O60437 1646-1756, looked up)
chain: KREQRENHLRRSIVVIHPDTGRELSPEEAHRAGLIDWNMFVKLRSQECDWEEISVKGPNGESSVIHDEKSGKKFSIEEALQSGRLTPAQYDRYVNKDMSIQELAVLVSGQK
notes: periplakin linker domain, human, residues K1646-K1756; also called periplakin mutant R1713E; periplakin linker mutant R1713E

- Kd [7]: 135 ± 30 µM
B4: periplakin linker domain (K1646–K1756) R1713E/K1714E (domain or fragment, human, UniProt O60437 1646-1756, looked up)
chain: KREQRENHLRRSIVVIHPDTGRELSPEEAHRAGLIDWNMFVKLRSQECDWEEISVKGPNGESSVIHDEESGKKFSIEEALQSGRLTPAQYDRYVNKDMSIQELAVLVSGQK
notes: as for B5

- Kd [7]: 48 ± 11 µM
B8: periplakin linker domain (K1646–K1756) R1737E/K1741E (domain or fragment, human, UniProt O60437 1646-1756, looked up)
chain: KREQRENHLRRSIVVIHPDTGRELSPEEAHRAGLIDWNMFVKLRSQECDWEEISVKGPNGESSVIHDRKSGKKFSIEEALQSGRLTPAQYDEYVNEDMSIQELAVLVSGQK
notes: periplakin linker domain, human, residues K1646-K1756; also called control double mutant
